Assay results taken from patent US20240261333A1 (published 2024).

T1: EIF5B (human, UniProt O60841 1-1220)
T1 construct: also called NP_056988.3
T1 sequence (looked up): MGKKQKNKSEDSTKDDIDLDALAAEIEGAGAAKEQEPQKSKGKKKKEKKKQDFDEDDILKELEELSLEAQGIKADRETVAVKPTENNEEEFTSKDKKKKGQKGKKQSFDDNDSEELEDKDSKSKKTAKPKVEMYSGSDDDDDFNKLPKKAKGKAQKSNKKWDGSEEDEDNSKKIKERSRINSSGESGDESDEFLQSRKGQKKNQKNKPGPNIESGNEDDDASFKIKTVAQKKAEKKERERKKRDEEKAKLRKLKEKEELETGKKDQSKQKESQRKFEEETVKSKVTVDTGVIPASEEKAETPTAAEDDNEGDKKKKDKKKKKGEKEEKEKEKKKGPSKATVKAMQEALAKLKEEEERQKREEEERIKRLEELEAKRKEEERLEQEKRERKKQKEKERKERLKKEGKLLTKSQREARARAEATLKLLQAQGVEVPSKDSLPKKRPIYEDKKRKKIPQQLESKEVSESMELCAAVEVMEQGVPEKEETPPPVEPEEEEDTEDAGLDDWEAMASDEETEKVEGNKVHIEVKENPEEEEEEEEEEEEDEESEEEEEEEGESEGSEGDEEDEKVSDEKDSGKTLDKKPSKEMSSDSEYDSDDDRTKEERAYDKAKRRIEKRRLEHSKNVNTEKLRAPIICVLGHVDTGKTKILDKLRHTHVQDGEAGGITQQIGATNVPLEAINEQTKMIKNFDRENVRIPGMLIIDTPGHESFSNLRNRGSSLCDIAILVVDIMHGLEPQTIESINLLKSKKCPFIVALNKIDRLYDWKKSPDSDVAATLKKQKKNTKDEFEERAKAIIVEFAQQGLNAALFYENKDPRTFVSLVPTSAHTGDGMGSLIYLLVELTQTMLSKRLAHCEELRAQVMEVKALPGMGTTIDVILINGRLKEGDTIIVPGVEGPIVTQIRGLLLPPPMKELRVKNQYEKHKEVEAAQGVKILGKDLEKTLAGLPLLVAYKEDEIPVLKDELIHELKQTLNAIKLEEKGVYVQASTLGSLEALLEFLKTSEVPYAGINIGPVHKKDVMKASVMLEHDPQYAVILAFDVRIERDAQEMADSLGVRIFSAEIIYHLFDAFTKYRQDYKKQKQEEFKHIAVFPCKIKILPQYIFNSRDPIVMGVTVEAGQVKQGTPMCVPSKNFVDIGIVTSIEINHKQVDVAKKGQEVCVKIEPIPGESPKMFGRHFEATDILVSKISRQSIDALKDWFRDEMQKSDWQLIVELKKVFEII

T2: HADHB (human, UniProt P55084 34-474)
T2 construct: also called NP_000174.1 (+3)
T2 sequence (looked up): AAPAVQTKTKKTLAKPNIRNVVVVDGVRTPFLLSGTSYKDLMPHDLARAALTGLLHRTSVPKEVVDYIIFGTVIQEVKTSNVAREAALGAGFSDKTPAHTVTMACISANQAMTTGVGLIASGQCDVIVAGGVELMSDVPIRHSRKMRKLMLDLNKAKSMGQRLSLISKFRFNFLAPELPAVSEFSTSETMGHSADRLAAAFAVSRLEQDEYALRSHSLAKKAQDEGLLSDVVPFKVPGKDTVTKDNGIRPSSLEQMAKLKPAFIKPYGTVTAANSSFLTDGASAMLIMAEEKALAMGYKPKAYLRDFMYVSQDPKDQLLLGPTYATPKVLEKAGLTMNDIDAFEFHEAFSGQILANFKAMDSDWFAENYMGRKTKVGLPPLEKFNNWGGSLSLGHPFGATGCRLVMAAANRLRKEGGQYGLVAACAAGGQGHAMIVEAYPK


How the values were obtained:
[1] = molecular target: RPS19 (UniProt P39019 2-145); assay: co-IP, anti-FLAG, N-FLAG B3GNT2 cell lysate, mass spectrometry
Protocol: (§1) Cells were plated in 10-cm cell culture dishes and grown to 60-80% confluency. For each condition, two biological replicates were harvested for co-IP. Cells were washed with PBS and 4 mL of lysis buffer (20 mM HEPES, 1% Triton X-100, 150 mM NaCl, 1 mM EDTA, and 10% glycerol) containing protease inhibitor cocktail was added. Cells were scraped and lysate was incubated at 4° C. under rotary agitation for 1 h. Lysate was centrifuged at 14,000×g for 10 min at 4° C. Supernatant was transferred to a new tube and an aliquot was taken as the input. […] For Western blots, 10 μg/mL Chicken Anti-FLAG (Aves labs ET-DY100) and IgY control (R&D Systems AB-101-C) antibodies were biotinylated (Thermo Fisher Scientific 90407) and added to the respective conditions. Lysates with antibodies were incubated at 4° C. under rotary agitation overnight. For each mL of lysate, 50 μL of Pierce Protein A/G Magnetic Beads (Mass spectrometry; Thermo Fisher Scientific 88803) or Pierce Streptavidin Magnetic Beads (Western blot; Thermo Fisher Scientific 88817) was washed twice with lysis buffer. Lysates with antibodies were added to the beads and incubated at 4° C. under rotary agitation for 4 h. Beads were washed with lysis buffer 3 times and resuspended in lysis buffer for storage.
(§2) Magnetic beads were resuspended in 100 mM Tris pH 7.8, reduced, alkylated and digested with trypsin at 37° ° C. overnight. This solution was subjected to solid phase extraction to concentrate the peptides and remove unwanted reagents followed by injection onto a Shimadzu HPLC with fraction collector. Eight fractions were collected and after concentration were injected on a Waters NanoAcquity HPLC equipped with a self-packed Aeris 3 μm C18 analytical column 0.075 mm by 20 cm, (Phenomenex). Peptides were eluted using standard reverse-phase gradients. The effluent from the column was analyzed using a Thermo Orbitrap Elite mass spectrometer (nanospray configuration) operated in a data dependent manner for 54 minutes. The resulting fragmentation spectra were correlated against the known database using Proteome Discover 1.4 (Thermo Fisher Scientific).

[2] = molecular target: RPL22 (UniProt P35268 2-128); assay: as above
Protocol: as §1, §2

[3] = molecular target: RPS13 (UniProt P62277 2-151); assay: as above
Protocol: as §1, §2

[4] = molecular target: T3, EIF4G1 (UniProt Q04637-3 1-1559, limits assumed); assay: as above
T3 construct: also called NP_001278086.1
Protocol: as §1, §2

[5] = molecular target: T4, LIMA1 (UniProt Q9UHB6-4 1-760, limits assumed); assay: as above
T4 construct: also called NP_001107018.1 (+1)
Protocol: as §1, §2

[6] = molecular target: T1, EIF5B; assay: co-IP, anti-FLAG, lysate of cells with N-FLAG B3GNT2; mass spectrometry
[7] = molecular target: T2, HADHB; assay: as above

T3 sequence (Q04637 41-1599 limits assumed): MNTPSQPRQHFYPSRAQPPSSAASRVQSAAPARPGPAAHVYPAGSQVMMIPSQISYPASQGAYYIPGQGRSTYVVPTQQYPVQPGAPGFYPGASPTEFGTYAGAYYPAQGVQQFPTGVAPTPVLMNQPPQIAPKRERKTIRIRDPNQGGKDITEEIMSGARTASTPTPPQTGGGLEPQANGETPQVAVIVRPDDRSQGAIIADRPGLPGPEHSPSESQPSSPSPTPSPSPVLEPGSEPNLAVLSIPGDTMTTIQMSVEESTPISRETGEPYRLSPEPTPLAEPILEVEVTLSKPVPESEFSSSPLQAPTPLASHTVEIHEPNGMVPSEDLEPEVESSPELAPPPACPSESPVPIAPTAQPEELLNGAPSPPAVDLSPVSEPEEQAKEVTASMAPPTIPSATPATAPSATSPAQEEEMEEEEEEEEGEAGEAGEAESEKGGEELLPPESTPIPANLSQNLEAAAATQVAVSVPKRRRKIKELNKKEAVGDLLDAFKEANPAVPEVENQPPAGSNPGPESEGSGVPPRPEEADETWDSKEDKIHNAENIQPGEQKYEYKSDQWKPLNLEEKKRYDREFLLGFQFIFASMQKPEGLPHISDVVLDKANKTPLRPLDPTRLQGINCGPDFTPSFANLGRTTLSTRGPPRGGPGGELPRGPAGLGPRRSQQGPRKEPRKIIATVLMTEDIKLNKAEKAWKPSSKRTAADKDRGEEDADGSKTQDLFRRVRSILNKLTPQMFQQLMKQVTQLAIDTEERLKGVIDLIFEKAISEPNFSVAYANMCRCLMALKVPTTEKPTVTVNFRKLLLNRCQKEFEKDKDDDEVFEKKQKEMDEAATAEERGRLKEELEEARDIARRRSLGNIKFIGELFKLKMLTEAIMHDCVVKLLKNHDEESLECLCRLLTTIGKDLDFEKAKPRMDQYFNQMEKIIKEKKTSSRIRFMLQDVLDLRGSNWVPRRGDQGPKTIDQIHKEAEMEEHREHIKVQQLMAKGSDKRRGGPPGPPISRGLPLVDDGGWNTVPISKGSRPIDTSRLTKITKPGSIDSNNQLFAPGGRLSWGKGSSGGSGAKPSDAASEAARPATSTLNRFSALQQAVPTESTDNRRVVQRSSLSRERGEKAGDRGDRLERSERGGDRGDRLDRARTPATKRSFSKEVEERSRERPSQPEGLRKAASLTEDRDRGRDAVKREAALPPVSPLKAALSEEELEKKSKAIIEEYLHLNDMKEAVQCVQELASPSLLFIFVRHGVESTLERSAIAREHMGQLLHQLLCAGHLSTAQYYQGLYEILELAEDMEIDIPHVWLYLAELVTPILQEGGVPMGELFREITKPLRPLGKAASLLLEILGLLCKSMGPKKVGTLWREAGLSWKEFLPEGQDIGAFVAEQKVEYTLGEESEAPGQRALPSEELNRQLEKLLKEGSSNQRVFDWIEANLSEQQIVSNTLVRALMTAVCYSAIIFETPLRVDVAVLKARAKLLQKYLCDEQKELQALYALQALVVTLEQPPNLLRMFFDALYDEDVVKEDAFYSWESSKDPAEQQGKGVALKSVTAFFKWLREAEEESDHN
T4 sequence (Q9UHB6 other isoform, or with tags, fused parts or gaps limits assumed): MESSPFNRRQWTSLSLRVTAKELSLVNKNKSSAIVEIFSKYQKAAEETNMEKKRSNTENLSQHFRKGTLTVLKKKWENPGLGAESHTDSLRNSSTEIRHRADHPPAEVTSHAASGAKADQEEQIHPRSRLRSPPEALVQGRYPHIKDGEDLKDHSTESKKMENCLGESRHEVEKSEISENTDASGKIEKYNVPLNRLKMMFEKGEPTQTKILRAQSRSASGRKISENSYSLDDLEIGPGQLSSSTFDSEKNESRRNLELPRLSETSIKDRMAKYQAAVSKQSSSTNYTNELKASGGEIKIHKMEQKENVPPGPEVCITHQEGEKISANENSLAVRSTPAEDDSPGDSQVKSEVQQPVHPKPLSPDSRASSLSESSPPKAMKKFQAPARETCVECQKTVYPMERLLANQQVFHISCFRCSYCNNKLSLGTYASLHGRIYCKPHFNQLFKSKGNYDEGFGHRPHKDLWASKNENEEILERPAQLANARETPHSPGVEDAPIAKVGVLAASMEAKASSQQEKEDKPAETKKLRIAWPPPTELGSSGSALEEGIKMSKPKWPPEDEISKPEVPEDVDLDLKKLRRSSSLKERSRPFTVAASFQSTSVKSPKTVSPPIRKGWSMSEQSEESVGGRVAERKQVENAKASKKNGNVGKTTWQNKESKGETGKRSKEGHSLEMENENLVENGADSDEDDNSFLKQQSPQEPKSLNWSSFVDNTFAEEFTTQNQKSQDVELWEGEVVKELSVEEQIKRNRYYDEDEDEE

Row | co-IP mass spectrometry count [1] | co-IP mass spectrometry count [2] | co-IP mass spectrometry count [3] | co-IP mass spectrometry count [4] | co-IP mass spectrometry count [5] | co-IP mass spectrometry count [6] | co-IP mass spectrometry count [7] | Binder
1 | 5 | 0 | 3 | 2 | 4 |  |  | N-terminal FLAG tagged B3GNT2 (enzyme, human, UniProt Q9NY97 1-397, looked up, Bait of the co-IP; pulled down with mouse anti-FLAG from cell lysate; also called N-FLAG B3GNT2; N-term FLAG; not shown: FLAG tag at the N-terminus) MSVGRRRIKLLGILMMANVFIYFIMEVSKSSSQEKNGKGEVIIPKEKFWKISTPPEAYWNREQEKLNRQYNPILSMLTNQTGEAGRLSNISHLNYCEPDLRVTSVVTGFNNLPDRFKDFLLYLRCRNYSLLIDQPDKCAKKPFLLLAIKSLTPHFARRQAIRESWGQESNAGNQTVVRVFLLGQTPPEDNHPDLSDMLKFESEKHQDILMWNYRDTFFNLSLKEVLFLRWVSTSCPDTEFVFKGDDDVFVNTHHILNYLNSLSKTKAKDLFIGDVIHNAGPHRDKKLKYYIPEVVYSGLYPPYAGGGGFLYSGHLALRLYHITDQVHLYPIDDVYTGMCLQKLGLVPEKHKGFRTFDIEEKNKNNICSYVDLMLVHSRKPQEMIDIWSQLQSAHLKC
2 |  |  |  |  |  | 0 | 0 | N-terminal FLAG tagged B3GNT2 (enzyme, human, UniProt Q9NY97 1-397, looked up, Overexpressed in cells and pulled down from the lysate with mouse anti-FLAG antibody; also called N-FLAG B3GNT2; N-term FLAG; not shown: N-terminal FLAG tag) MSVGRRRIKLLGILMMANVFIYFIMEVSKSSSQEKNGKGEVIIPKEKFWKISTPPEAYWNREQEKLNRQYNPILSMLTNQTGEAGRLSNISHLNYCEPDLRVTSVVTGFNNLPDRFKDFLLYLRCRNYSLLIDQPDKCAKKPFLLLAIKSLTPHFARRQAIRESWGQESNAGNQTVVRVFLLGQTPPEDNHPDLSDMLKFESEKHQDILMWNYRDTFFNLSLKEVLFLRWVSTSCPDTEFVFKGDDDVFVNTHHILNYLNSLSKTKAKDLFIGDVIHNAGPHRDKKLKYYIPEVVYSGLYPPYAGGGGFLYSGHLALRLYHITDQVHLYPIDDVYTGMCLQKLGLVPEKHKGFRTFDIEEKNKNNICSYVDLMLVHSRKPQEMIDIWSQLQSAHLKC
